Experimental data from patent publication US20220106400A1 (Bristol-Myers Squibb, published 2022).
Changes are numbered by the printed parent chain. Names may count otherwise. “And” between values parts separate entries of the source, which are not always exact repeats. Equal entries are not always repeated. Where two headings read alike, the source gives them in different places.

T1: human CD73 on human tumor cell lines (human, UniProt P21589 27-549)
T1 sequence (looked up): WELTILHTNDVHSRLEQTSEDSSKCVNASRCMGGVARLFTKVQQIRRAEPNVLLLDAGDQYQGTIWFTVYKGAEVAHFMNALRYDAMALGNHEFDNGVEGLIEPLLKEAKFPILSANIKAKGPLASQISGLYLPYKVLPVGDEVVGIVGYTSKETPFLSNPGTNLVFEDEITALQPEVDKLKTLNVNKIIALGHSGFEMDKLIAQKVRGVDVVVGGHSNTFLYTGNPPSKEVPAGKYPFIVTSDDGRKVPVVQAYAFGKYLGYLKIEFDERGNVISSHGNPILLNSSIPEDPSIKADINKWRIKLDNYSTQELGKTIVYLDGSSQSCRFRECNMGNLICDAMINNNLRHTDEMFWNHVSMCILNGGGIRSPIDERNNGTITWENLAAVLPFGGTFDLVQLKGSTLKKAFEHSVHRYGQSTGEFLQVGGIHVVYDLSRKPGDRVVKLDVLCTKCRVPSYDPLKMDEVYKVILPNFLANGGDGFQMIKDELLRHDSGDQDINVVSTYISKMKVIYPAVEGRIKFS

T2: N-terminal domain of hCD73 (residues 26-336 of human CD73), his-tagged (human, UniProt P21589 26-336)
T2 construct: also called N-hCD73; N-hCD73-his
T2 sequence (looked up): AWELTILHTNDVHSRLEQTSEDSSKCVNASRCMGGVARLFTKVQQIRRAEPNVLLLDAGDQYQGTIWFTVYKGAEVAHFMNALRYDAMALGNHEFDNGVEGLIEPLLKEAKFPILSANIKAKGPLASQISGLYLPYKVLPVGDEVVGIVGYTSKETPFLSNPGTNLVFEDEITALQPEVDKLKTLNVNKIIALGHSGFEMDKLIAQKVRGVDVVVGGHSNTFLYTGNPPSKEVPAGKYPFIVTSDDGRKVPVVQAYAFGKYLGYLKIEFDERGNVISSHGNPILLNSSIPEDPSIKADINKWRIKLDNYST

T3: full length extracellular domain of human-CD73 with C-terminal polyhistidine tag (residues 26-546) (human, UniProt P21589 26-546)
T3 construct: range 26-546; also called hCD73-his; CD73-his
T3 sequence (looked up): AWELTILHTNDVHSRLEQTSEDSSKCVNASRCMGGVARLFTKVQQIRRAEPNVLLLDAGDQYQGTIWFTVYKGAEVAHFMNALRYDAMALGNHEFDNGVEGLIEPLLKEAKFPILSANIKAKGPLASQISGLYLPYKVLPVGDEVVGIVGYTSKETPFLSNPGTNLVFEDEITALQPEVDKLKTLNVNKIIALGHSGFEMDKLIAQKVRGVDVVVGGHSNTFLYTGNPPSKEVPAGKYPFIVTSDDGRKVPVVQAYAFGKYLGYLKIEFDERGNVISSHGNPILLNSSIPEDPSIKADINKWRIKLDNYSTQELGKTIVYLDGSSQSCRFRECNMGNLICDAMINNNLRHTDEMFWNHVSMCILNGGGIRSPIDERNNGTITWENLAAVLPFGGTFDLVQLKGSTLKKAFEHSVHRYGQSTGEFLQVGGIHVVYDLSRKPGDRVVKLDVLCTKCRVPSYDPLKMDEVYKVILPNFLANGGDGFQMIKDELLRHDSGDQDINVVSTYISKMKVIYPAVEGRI

T4: human GITR (human, UniProt Q9Y5U5 26-241)
T4 sequence (looked up): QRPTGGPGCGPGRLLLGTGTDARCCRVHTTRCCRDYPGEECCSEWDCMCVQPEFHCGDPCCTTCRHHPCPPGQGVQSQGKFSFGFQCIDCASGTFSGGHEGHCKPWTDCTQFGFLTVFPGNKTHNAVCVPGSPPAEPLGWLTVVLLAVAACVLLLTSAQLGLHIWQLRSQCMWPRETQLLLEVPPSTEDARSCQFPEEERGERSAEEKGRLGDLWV

B1: CD73.10-IgG2-C219S (antibody)
heavy: QVQLVESGGGVVQPGRSLRLSCAASGFTFSNYGMHWVRQAPGKGLEWVAVIWYDESNKYYPDSVKGRFTISRDNSKNTLYLQMNSLRAEDTAVYYCARGGSSWYPDSFDIWGQGTMVTVSSASTKGPSVFPLAPCSRSTSESTAALGCLVKDYFPEPVTVSWNSGALTSGVHTFPAVLQSSGLYSLSSVVTVPSSNFGTQTYTCNVDHKPSNTKVDKTVERKSCVECPPCPAPPVAGPSVFLFPPKPKDTLMISRTPEVTCVVVDVSHEDPEVQFNWYVDGVEVHNAKTKPREEQFNSTFRVVSVLTVVHQDWLNGKEYKCKVSNKGLPAPIEKTISKTKGQPREPQVYTLPPSREEMTKNQVSLTCLVKGFYPSDIAVEWESNGQPENNYKTTPPMLDSDGSFFLYSKLTVDKSRWQQGNVFSCSVMHEALHNHYTQKSLSLSPG
light: not shown
notes: anti-CD73; also called CD73.10-IgG2CS; CD73.10-Vh-hHC-IgG2-C219S
B2: CD73.10-IgG2-C219S-IgG1.1 (antibody)
heavy: B1 heavy with Q274K, F296Y, F300Y, V309L, G327A, A330S, P331S, T339A
light: not shown
notes: anti-CD73; also called CD73.10-IgG2CS-IgG1.1f; CD73.10-Vh-hHC-IgG2-C219S-IgG1.1f
B3: CD73.4-IgG2-C219S (antibody)
heavy: B1 heavy with W52L, E55G
light: not shown
notes: anti-CD73; also called CD73.4-IgG2CS; CD73.4-IgG2.3
B4: GITR.6.G2 (antibody, human IgG2, kappa)
heavy: QVQLVESGGGVVQPGRSLRLSCAASGFTFSSYGMHWVRQAPGKGLEWVAVIWYEGSNKYYADSVKGRFTISRDNSKNTLYLQMNSLRAEDTAVYYCARGGSMVRGDYYYGMDVWGQGTTVTVSSASTKGPSVFPLAPCSRSTSESTAALGCLVKDYFPEPVTVSWNSGALTSGVHTFPAVLQSSGLYSLSSVVTVPSSNFGTQTYTCNVDHKPSNTKVDKTVERKCCVECPPCPAPPVAGPSVFLFPPKPKDTLMISRTPEVTCVVVDVSHEDPEVQFNWYVDGVEVHNAKTKPREEQFNSTFRVVSVLTVVHQDWLNGKEYKCKVSNKGLPAPIEKTISKTKGQPREPQVYTLPPSREEMTKNQVSLTCLVKGFYPSDIAVEWESNGQPENNYKTTPPMLDSDGSFFLYSKLTVDKSRWQQGNVFSCSVMHEALHNHYTQKSLSLSPGK
light: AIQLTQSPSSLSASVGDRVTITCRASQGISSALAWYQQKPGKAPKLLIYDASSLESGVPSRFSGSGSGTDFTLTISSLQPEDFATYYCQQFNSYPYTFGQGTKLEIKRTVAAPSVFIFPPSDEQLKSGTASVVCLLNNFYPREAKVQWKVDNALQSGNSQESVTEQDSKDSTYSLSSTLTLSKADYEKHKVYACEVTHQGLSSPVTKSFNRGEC
B5: 11F11 (antibody, human IgG2, kappa, V domains shown)
VH: QVQLVESGGGVVQPGRSLRLSCATSGFTFSNYGMHWVRQAPGKGLEWVAVILYDGSNKYYPDSVKGRFTISRDNSKNTLYLQMNSLRAEDTAVYYCARGGSSWYPDSFDIWGQGTMVTVSS
VL: DIQMTQSPSSLSASVGDRVTITCRASQGISSWLAWYQQKPEKAPKSLIYAASSLQSGVPSRFSGSGSGTDFTLTISSLQPEDFATYYCQQYNSYPLTFGGGTKVEIKR
notes: hybridoma derived anti-CD73 antibody, IgG2 constant region; also called 11F11(IgG2)

Legend:
[1] = target: T1, human CD73 on human tumor cell lines; test: cell-based or functional assay
[2] = target: T2, N-terminal domain of hCD73 (residues …); test: SPR Biacore T100, mAb captured on protein A, N-hCD73-his analyte, 25 C; separate experiment
Protocol: (§1) The affinity of the antibodies for human CD73 was measured to determine whether the change of the constant region affects them. The affinities were determined by Surface Plasmon Resonance (SPR) as follows. […] For these experiments, protein A (Pierce) was immobilized to a density of 3000-4000 RU on flow cells 1-4 of a CM5 sensor chip (GE Healthcare) using standard ethyl(dimethylaminopropyl) carbodiimide (EDC)/N-hydroxysuccinimide (NHS) chemistry, with ethanolamine blocking, in a running buffer of 0.01 M HEPES pH 7.4, 0.15 M NaCl, 3 mM EDTA, 0.005% v/v tween 20. Kinetic experiments were performed by first capturing antibodies (5-10 ug/ml) on the protein A surfaces using a 30 s contact time at 10 ul/min, with binding of 600, 200, 66.7, 22.2, 7.4, and 2.5 nM N-hCD73-his, using a 180 s association time and 360 s dissociation time at a flow rate of 30 ul/min. The running buffer for the kinetic experiments was 10 mM sodium phosphate, 130 mM sodium chloride, 0.05% tween 20, pH 7.1. The surfaces were regenerated after each cycle using two 30 s pulses of 10 mM glycine pH 1.5 at a flow rate of 30 μl/min. Sensogram data was double-referenced and then fitted to a 1:1 Langmuir model using Biacore T100 evaluation software v2.0.4, to determine the association rate constant (ka), the dissociation rate constant (kd), and the equilibrium dissociation constant (KD).

[3] = target: T1, human CD73 on human tumor cell lines; test: cell-based or functional assay; remark: listed apart in the source
[4] = target: T2, N-terminal domain of hCD73 (residues …); test: SPR Biacore T100, mAb captured on protein A, N-hCD73-his analyte, 25 C
Protocol: as §1

[5] = target: T1, human CD73 on human tumor cell lines; test: cell-based or functional assay; remark: listed apart in the source
[6] = target: T1, human CD73 on human tumor cell lines; test: cell-based or functional assay; remark: listed apart in the source
[7] = target: T3, full length extracellular domain of …; test: SEC, 1:1 molar mix 5.5 uM each
Protocol: The oligomeric state of CD73/antibody complexes were examined by size-exclusion chromatography coupled to an in-line multi-angle light scattering detector (SEC-MALS). Isocratic separations were performed on a Shodex PROTEIN KW-803 column connected to an Prominence Shimadzu UFLC in buffer containing 200 mM K₂HPO₄, 150 mM NaCl, pH 6.8, containing 0.02% Na azide (0.1 μm filtered) running at 0.5 mL/min. Samples were injected onto the column using a SIL-20AC Prominence Shimadzu autosampler, and data were obtained from three online detectors connected in series: a Prominence SPD-20AD diode array UV/vis spectrophotometer followed by a Wyatt miniDAWN™ TREOS Multi-Angle Light Scattering Detector then a Wyatt Optilab T-rEX Refractive Index Detector. Data were collected and analyzed using Astra (Wyatt) and Labsolutions (Shimadzu) software.
CD73.4 antibodies having the heavy chain constant regions set forth in Table 14 were also tested for formation of high molecular weight complexes by SEC-MALS and DLS experiments, as described in Example 3.

human GITR = target: T4, human GITR; test: cell-based or functional assay

Row | Binder | EC50 of CD73 internalization, Calu6, 2 h [1] | Ymax of CD73 internalization, Calu6, 2 h [1] | Kd [2] | koff [2] | kon [2] | % internalization, Calu6 [3] | % internalization, H2030 [3] | % internalization, H2228 [3] | % internalization, HCC15 [3] | T1/2 internalization, Calu6 [3] | T1/2 internalization, H2030 [3] | T1/2 internalization, H2228 [3] | T1/2 internalization, HCC15 [3] | Kd [4] | koff [4] | kon [4] | also measured
1 | B1 | 0.67 nM | 99 % of 100 nM 11F11 | 8.3 nM | 0.0018 s⁻¹ | 220000 M⁻¹ s⁻¹ | 91% | 85% | 93% | 91% | 3 min | 3.3 min | 9.7 min | 2.6 min | 6.2 nM | 0.0014 s⁻¹ | 220000 M⁻¹ s⁻¹ | 
2 | B2 | 0.87 nM | 99 % of 100 nM 11F11 | 6.8 nM | 0.0016 s⁻¹ | 230000 M⁻¹ s⁻¹ | 91% | 87% | 92% | 91% | 3.1 min | 4.3 min | 9.4 min | 3 min | 5.7 nM | 0.0014 s⁻¹ | 240000 M⁻¹ s⁻¹ | 
3 | B3 |  |  |  |  |  | 88% | 89% | 94% | 94% | 6.5 min | 3.7 min | 13.8 min | 3.1 min | 0.55 nM |  |  | T1/2 internalization, Calu6 [5]: 36 min; T1/2 internalization, NCI-H292 [5]: 16.6 min; Ymax internalization, Calu6 [5]: 75.6%; Ymax internalization, NCI-H292 [5]: 78.4%; T1/2 internalization, Calu6 [6]: 22.4 min and 21.8 min; T1/2 internalization, NCI-H292 [6]: 17.2 min and 17.1 min; UV % Peak1 <12.9 min [7]: 37%; UV % Peak3 15.1-16.7 min [7]: 7.7%; UV % Peak4 16.7-19.3 min (free mAb) [7]: 28.6%; UV % Peak5 >19.3 min [7]: 2.9%
4 | B4 |  |  |  |  |  |  |  |  |  |  |  |  |  |  |  |  | NFKB signaling in TCR activated CD4+ T cells, EC50 (human GITR): 12.8 nM; NFKB signaling in TCR activated CD4+ T cells, Emax (human GITR): 69%; NFKB signaling in TCR activated CD8+ T cells, EC50 (human GITR): 9 nM; NFKB signaling in TCR activated CD8+ T cells, Emax (human GITR): 85%
5 | B5 | 0.58 nM | 98 % of 100 nM 11F11 | 0.56 nM | 0.00016 s⁻¹ | 290000 M⁻¹ s⁻¹ |  |  |  |  |  |  |  |  | 1.6 nM | 0.00042 s⁻¹ | 260000 M⁻¹ s⁻¹ | 
